Target: Type I Human Collagen (human) (UniProt P02452)
Experiment: fluorescence polarisation; Cy5.5-labelled insulin formulated in saline (control) or in aCH (SPADE), mixed with a Type I human collagen solution at a predetermined w/w ratio; read immediately after mixing on a Molecular Devices Flexstation 3 plate reader

UniProt P02452, sequence (P02452 162-1218, chain 1 of 2): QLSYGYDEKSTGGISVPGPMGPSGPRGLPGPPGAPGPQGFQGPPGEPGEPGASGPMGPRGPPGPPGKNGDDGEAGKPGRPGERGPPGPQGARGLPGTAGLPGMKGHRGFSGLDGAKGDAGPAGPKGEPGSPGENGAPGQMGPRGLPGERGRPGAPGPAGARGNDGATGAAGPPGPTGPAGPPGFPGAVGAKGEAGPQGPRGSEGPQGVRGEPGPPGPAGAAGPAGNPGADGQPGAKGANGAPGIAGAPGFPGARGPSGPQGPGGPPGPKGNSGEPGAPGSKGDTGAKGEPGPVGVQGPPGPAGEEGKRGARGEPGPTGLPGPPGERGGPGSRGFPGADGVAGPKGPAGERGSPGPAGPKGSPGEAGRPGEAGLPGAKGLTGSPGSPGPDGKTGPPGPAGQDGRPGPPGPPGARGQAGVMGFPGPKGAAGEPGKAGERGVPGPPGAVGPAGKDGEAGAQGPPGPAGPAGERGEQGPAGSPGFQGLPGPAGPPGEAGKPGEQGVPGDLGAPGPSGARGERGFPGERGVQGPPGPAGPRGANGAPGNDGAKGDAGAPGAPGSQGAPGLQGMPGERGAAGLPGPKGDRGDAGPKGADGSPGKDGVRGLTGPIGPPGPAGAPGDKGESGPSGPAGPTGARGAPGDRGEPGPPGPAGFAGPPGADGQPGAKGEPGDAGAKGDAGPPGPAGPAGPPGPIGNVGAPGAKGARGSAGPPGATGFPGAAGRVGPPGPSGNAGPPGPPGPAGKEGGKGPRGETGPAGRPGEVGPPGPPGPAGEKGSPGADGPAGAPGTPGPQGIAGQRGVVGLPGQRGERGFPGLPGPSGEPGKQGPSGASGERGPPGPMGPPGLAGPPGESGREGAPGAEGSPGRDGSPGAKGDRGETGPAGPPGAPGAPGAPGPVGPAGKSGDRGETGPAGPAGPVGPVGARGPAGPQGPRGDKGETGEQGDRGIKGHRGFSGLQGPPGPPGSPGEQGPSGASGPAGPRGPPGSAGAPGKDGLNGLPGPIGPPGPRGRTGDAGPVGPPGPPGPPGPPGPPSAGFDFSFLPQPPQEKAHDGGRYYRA
UniProt P02452, sequence (P08123 80-1119, chain 2 of 2, further chain): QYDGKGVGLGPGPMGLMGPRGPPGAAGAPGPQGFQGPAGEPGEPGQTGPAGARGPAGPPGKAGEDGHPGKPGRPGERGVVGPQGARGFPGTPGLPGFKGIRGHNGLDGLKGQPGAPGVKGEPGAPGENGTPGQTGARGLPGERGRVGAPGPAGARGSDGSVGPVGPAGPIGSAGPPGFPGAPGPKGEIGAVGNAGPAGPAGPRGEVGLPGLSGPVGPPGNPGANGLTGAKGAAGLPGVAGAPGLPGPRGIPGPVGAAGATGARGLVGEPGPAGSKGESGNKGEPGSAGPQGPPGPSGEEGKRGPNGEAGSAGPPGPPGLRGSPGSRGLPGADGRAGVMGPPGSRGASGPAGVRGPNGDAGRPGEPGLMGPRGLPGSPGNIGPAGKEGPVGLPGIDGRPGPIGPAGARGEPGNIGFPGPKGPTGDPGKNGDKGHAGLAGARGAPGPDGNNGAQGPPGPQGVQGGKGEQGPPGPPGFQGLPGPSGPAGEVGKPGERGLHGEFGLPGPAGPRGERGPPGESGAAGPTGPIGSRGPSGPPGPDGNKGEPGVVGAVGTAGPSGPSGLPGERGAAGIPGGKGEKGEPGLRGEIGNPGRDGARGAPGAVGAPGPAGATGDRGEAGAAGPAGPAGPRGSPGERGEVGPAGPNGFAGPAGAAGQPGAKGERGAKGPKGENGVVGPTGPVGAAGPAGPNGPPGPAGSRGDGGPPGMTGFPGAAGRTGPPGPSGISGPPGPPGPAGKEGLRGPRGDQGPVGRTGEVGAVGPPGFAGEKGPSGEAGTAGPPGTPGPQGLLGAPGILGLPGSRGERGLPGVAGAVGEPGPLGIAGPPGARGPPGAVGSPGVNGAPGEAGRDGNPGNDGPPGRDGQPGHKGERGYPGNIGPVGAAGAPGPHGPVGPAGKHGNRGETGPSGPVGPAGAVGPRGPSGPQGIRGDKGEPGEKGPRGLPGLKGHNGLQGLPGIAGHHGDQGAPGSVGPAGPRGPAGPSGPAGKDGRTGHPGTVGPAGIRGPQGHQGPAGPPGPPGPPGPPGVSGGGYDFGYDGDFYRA

Cy 5.5 fluorescently-labeled insulin (ligand)
average polarisation of the saline control relative to the aCH (SPADE) formulation: 1.5 fold

From paper PMC9982585
